# In patent US20070212347A1 (published 2007):
# T1: GST-Ig^b fusion protein (polycystin-1 Ig-like domains VI-X, amino acids 1205-1625, fused to GST) (human, UniProt P98161 1205-1625)
# T1 construct: used soluble in the MDCK adhesion assays; not shown: glutathione S-transferase carrier encoded by the pGEX vector (Pharmacia), N-terminal fusion partner; linker residues not
# T1 sequence: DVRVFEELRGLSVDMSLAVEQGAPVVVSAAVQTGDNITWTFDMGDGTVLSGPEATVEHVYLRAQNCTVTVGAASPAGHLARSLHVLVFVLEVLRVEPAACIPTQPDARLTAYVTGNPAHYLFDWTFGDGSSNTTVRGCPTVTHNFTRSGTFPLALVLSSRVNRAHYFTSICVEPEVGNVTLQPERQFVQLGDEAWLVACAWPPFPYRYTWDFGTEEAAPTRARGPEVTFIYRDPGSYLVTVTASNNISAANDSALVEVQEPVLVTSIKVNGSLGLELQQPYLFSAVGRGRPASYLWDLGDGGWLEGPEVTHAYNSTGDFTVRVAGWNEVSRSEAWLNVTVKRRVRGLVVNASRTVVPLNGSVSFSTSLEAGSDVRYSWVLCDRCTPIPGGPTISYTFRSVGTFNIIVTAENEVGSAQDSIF
# T2: ^35S-PKD2 probe (C-terminal region of polycystin-2, Res. 657-968) (UniProt Q13563 657-968, ^35S-labeled (in vitro translation))
# T2 construct: range 657-968; In vitro translated in the same manner as the Ig probes; also called polycystin-2 probe; PKD2 gene product
# T2 sequence (looked up): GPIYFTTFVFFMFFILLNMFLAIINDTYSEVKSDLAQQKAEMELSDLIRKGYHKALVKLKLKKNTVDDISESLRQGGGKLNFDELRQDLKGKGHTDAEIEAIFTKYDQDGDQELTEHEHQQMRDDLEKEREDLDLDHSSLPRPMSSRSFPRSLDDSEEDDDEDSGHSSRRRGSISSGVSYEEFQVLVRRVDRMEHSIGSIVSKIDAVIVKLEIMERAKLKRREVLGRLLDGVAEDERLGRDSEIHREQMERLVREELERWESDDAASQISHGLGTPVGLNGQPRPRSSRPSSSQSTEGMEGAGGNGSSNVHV
# B1: ^35S-Ig^b in vitro translated probe (polycystin-1 Ig-like domains VI-X) (other)
# chain: T1 sequence
# modifications: ^35S-labeled (in vitro translation)
# notes: Translated in reticulocyte lysate without the GST portion, from an AUG in a Kozak context placed upstream of the insert
# B2: MBP-PKD1 fusion protein (C-terminal region of polycystin-1, Res. 4077-4302, fused to MBP) (other, not shown: large carriers)
# chain: ESWHLSPLLCVGLWALRLWGALRLGAVILRWRYHALRGELYRPAWEPQDYEMVELFLRRLRLWMGLSKVKEFRHKVRFEGMEPLPSRSSRGSKVSPDVPPPSAGSDASHPSTSSSQLDGLSVSLGRLGTRCEPEPSRLQAVFEALLTQFDRLNQATEDVYQLEQQLHSLQGRRSSRAPAGSSRGPSPGLRPALPSRLARASRGVDLATGPSRTPLRAKNKVHPSST
# notes: Immobilized on amylose resin; also called polycystin-1 c-terminal fusion protein
# Tests used:
# [1] = molecular target: GST-p53 construct (Res. 73-390) [GST: P08515]; assay: in vitro binding, ^35S-T-antigen probe on bead-immobilized GST-p53
# [2] = molecular target: T1, GST-Ig^b fusion protein (polycystin-1 …); assay: in vitro binding, ^35S in vitro translated probe on bead-immobilized GST fusion
# Excerpt: Each region was translated in vitro and tested for the ability to bind to each region including itself in the form of immobilized fusion protein. The binding properties of all combinations were quantitatively analyzed as a percentage of binding of in vitro translated protein. In this type of assay the fusion proteins are present in a vast excess compared to the amount of the translated probe. Therefore, theoretically almost all of the translated probe should bind to immobilized fusion protein, even if binding is weak. […] In practice, deviations from quantitative binding occur if not all of the immobilized protein or/and in vitro translated probe is functionally active. Nevertheless, a functionally relevant interaction should result in significant retention of ligand.
# GST-fusion proteins or GST alone were immobilized individually onto Glutathione Sepharose (Pharmacia). MBP-PKD1 fusion protein or MBP-lacZ as control were immobilized onto amylose resin (NEB). Twenty (20) μL of beads with ˜10 μg of immobilized fusion proteins were used for each binding reaction. […] The gels were exposed to film (X-Omat AR, Kodak) as well as quantified using a PhosphorImager with ImageQuant (v. 3.2) software (Molecular Dynamics).
# [3] = molecular target: Ig^b and Ig^c, as partners of Ig^b in the 'Ig^b-Ig^b, Ig^b-Ig^c combinations'; assay: in vitro binding, ^35S in vitro translated probe on bead-immobilized GST fusion, PhosphorImager
# [4] = molecular target: T2, ^35S-PKD2 probe (C-terminal region of …); assay: in vitro binding, autoradiogram (FIG. 12C)
# Excerpt: The first lane of each panel contains total input of ³⁵S-labeled probe used for each binding experiment. […] Lanes 2 and 3 show probe bound to immobilized fusion proteins GST-p53 and GST carrier, respectively. […] Binding of the probe to MBP-lacZ fusion protein was used as negative control (lane 3).
# GST-fusion proteins or GST alone were immobilized individually onto Glutathione Sepharose (Pharmacia). MBP-PKD1 fusion protein or MBP-lacZ as control were immobilized onto amylose resin (NEB). Twenty (20) μL of beads with ˜10 μg of immobilized fusion proteins were used for each binding reaction. Approximately 10 μl of in vitro translated ³⁵S-labeled probe were incubated for 3 hours at room temperature with immobilized fusion proteins in 0.1 ml of binding buffer (10 mM HEPES, pH 7.4, 100 mM NaCl, 1 mM CaCI₂, 2 mM MgCl₂, 0.75 mM benzamidine, 0.1 mM PMSF) and washed with 20 column volumes of the same buffer. The polycystin-2 and polycystin-1 interaction assay was also performed in another buffer (10 mM Tris, pH 7.4, 200 mM NaCl, 1 mM EDTA). The ³⁵S-translated material bound to the beads was resolved by SDS-PAGE with input ³⁵S probe run in parallel. The gels were exposed to film (X-Omat AR, Kodak) as well as quantified using a PhosphorImager with ImageQuant (v. 3.2) software (Molecular Dynamics).
# GST-p53 construct (Res. 73-390) [GST: P08515], sequence (P08515 whole entry, the tested form may be a part): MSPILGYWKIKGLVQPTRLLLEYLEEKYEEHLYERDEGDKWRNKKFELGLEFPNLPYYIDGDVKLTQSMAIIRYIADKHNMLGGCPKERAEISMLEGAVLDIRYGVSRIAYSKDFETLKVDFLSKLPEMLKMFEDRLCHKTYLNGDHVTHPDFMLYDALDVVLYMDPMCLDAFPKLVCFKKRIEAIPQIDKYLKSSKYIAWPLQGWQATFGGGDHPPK
molecule,measurement,setting,value
"^35S-T-antigen probe (SV40 large T-antigen, res. 87-708) (from UniProt P03070 87-708)",bound fraction (percentage of input probe),[1],45%
B1,binding result,[2],binds
same,bound fraction (percentage of input probe),[3],25 to 45%
B2,binding result,[4],binds
